The record followed here is patent US8252554B2, “Halohydrin dehalogenases and related polynucleotides” (Codexis, Inc., priority 2003, dated 2012).

The chains are these.
B1: SEQ ID NO: 20: improved HHDH (halohydrin dehalogenase) polypeptide of the Sequence Listing (protein)
chain: MSPAIVTNVKHFGGMGSALRLSEAGHTVACHDESFKQKDELEAFAETYPQLKPMSEQEPAELIEAVTSAYGQVDVLVSNDIFAPEFQPIDKYAVEDYRGAVEALQIRPFALVNAVASQMKKRKSGHIIFITSATPFGPWKELSTYTSARAGACTLANALSKELGEYNIPVFAIGPNYLHSEDSPYFYPTEPWKTNPEHVAHVKKVTALQRLGTQKELGELVAFLASGSCDYLTGQVFWLAGGFPMIERWPGMPE
B2: SEQ ID NO: 6: improved HHDH (halohydrin dehalogenase) polypeptide of the Sequence Listing (protein)
chain: B1 chain with P3T, A24T
B3: SEQ ID NO: 30: improved HHDH (halohydrin dehalogenase) polypeptide of the Sequence Listing (protein)
chain: B1 chain with P3T, A4V
B4: SEQ ID NO: 10: improved HHDH (halohydrin dehalogenase) polypeptide of the Sequence Listing (protein)
chain: B1 chain with S2T, P3A, A29T, S34R, F35L, K52N
B5: SEQ ID NO: 34: improved HHDH (halohydrin dehalogenase) polypeptide of the Sequence Listing (protein)
chain: B1 chain with S17T, H26Q
B6: SEQ ID NO: 4: improved HHDH (halohydrin dehalogenase) polypeptide of the Sequence Listing (protein)
chain: B1 chain with P3T, K36N, F44L, A45P, S55R
B7: SEQ ID NO: 24: improved HHDH (halohydrin dehalogenase) polypeptide of the Sequence Listing (protein)
chain: B1 chain with P3T, V199M
B8: SEQ ID NO: 12: improved HHDH (halohydrin dehalogenase) polypeptide of the Sequence Listing (protein)
chain: B1 chain with V9I, G13S, G16C, S17R
B9: SEQ ID NO: 26: improved HHDH (halohydrin dehalogenase) polypeptide of the Sequence Listing (protein)
chain: B1 chain with P3T, F136L
B10: SEQ ID NO: 22: improved HHDH (halohydrin dehalogenase) polypeptide of the Sequence Listing (protein)
chain: B1 chain with P3T, K36N, M252V
B11: SEQ ID NO: 16: improved HHDH (halohydrin dehalogenase) polypeptide of the Sequence Listing (protein)
chain: B1 chain with P3T, F136L
B12: SEQ ID NO: 8: improved HHDH (halohydrin dehalogenase) polypeptide of the Sequence Listing (protein)
chain: B1 chain with P3T, R20S, A29T
B13: SEQ ID NO: 14: improved HHDH (halohydrin dehalogenase) polypeptide of the Sequence Listing (protein)
chain: B1 chain with P3T, V6D, G14S, M15K, S17T, E40D, A133S
B14: SEQ ID NO: 18: improved HHDH (halohydrin dehalogenase) polypeptide of the Sequence Listing (protein)
chain: MSTAIVTNVKHFGGMGSALRLSEAGHTVACHDESFKQKDELEAFAETYPQLKPMSEQEPAELIEAVTSAYGQVDVLVSNDIFAPEFQPIDKYAVEDYRGAVEALQIRPFALVNAVASQMKKRKSGHIIFITSATPFGPWKELSTYTSARAGACTLANALSKELGEYNIPVFAIGPNYLHSEDSPYFYPTEPWKTNPEHVAHVKKVTALQRLGTQKELGELVAFLASGSCDYLTGQGFFLAGGFPMIERWPGM
B15: SEQ ID NO: 28: improved HHDH (halohydrin dehalogenase) polypeptide of the Sequence Listing (protein)
chain: B14 chain with T3P, G236V, F238W
B16: W139R/N176E: intermediate active HHDH variant with W139 and N176 mutated into an apparent salt bridge (with reference to SEQ ID NO: 2) (protein)
chain: B1 chain with P3T, W139R, N176E
B17: W139D/N176R: intermediate active HHDH variant with W139 and N176 mutated into an apparent salt bridge (with reference to SEQ ID NO: 2) (protein)
chain: B1 chain with P3T, W139D, N176R

Changes are numbered by the printed parent chain. Names may count otherwise.

Chain of HHDH (Q93D82 entry or part of it): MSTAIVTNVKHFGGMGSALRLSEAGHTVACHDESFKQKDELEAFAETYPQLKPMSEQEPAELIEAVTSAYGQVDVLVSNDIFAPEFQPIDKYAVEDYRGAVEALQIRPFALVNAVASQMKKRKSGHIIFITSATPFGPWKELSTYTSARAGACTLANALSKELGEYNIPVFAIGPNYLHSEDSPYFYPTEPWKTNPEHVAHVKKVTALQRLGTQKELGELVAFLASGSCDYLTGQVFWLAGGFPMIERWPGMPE

System in the first assay: not listed separately
Kind of assay: Example 5A gas chromatography assay of HHDH activity (conversion of ECHB to ethyl (R)-4-cyano-3-hydroxybutyrate). Format: biochemical. To be noted: ECHB substrate; Activity of Improved HHDH Enzyme/Activity of Agrobacterium sp. HHDH (SEQ ID NO: 2). As for the experimental part:
To a solution of ethyl (S)-4-chloro-3-hydroxybutyrate (10 mM-100 mM) in 500 mM HCN (500 mM NaCN adjusted to pH 7.0 with phosphoric acid) was added the halohydrin dehalogenase enzyme as a predissolved solution in the same buffer. Over time, aliquots of the mixture were withdrawn and extracted with three volumes of ethyl acetate. The organic layer was then analysed for ethyl (R)-4-cyano-3-hydroxybutyrate by gas chromatography (GC), as described hereinbelow in Example 6. Samples were taken at various time points, and the peak area of the product cyanohydrin, ethyl (R)-4-cyano-3-hydroxybutyrate, was plotted as a function of time. Time points are selected at low conversion, for example, less than 5% conversion, to avoid the effect of product inhibition (e.g., 0.5%, 1.0%, 1.5%, 2.0%, 2.5%, 3.0%, etc.). The peak areas were converted to concentration units using a standard curve that was prepared for the ethyl (R)-4-cyano-3-hydroxybutyrate. Activity of the halohydrin dehalogenase was determined in units of μmol (cyanohydrin produced)/min/mg (total halohydrin dehalogenase catalyst). Relative activities of some of the clones are shown in Table 2, computed as Activity of Improved HHDH Enzyme/Activity of Agrobacterium sp. HHDH (SEQ ID NO: 2).
The ethyl (R)-4-cyano-3-hydroxybutyrate produced in Example 5A was analyzed using gas chromatography with flame ionization (FID) detection using an Agilent® HP-5™ column, 30 m long, 0.32 mm inner diameter, film 0.25 μm, using the following program: 1 minute at 100° C., 5° C./minute for 10 minutes; 25° C./minute for 2 minutes; then 2 minutes at 200° C. Inlet and outlet temperatures were both 300° C., and the flow rate was 2 ml/minute. Under these conditions, ethyl (R)-4-cyano-3-hydroxybutyrate elutes at 6.25 minutes and ethyl (S)-4-chloro-3-hydroxybutyrate elutes at 4.5 minutes. Chemical purity of the species was measured using the integrated peak areas from the gas chromatography results.
For the molecule B1, the “Fold Improvement in HHDH Activity over Aerobacterium sp. HHDH (SEQ ID NO: 2)” value (“Fold Improvement … (SEQ ID NO: 2)” below) is listed as 3.8 Fold.

Regarding B2, the “Fold Improvement … (SEQ ID NO: 2)” value is 1.6 Fold.

For the molecule B3, the “Fold Improvement … (SEQ ID NO: 2)” value stood at 2.8 Fold. As to B4, the “Fold Improvement … (SEQ ID NO: 2)” value was 1.7 Fold.

Consider B5, for which the “Fold Improvement … (SEQ ID NO: 2)” value was 2.4 Fold.

On to B6, for which the “Fold Improvement … (SEQ ID NO: 2)” value is given as 1.5 Fold.

On to B7, for which the “Fold Improvement … (SEQ ID NO: 2)” value is on record as 3.2 Fold. For the molecule B8, the “Fold Improvement … (SEQ ID NO: 2)” value amounted to 2.5 Fold. As to B9, the “Fold Improvement … (SEQ ID NO: 2)” value was 1.7 Fold.

On to B10, for which the “Fold Improvement … (SEQ ID NO: 2)” value was 2.5 Fold. Still for that read-out and setting: as for B11, the figure is 2.0 Fold; as for B12, 1.8 Fold; as for B13, 1.4 Fold.

In the case of B14, the “Fold Improvement … (SEQ ID NO: 2)” value is 2.7 Fold.

Regarding B15, the “Fold Improvement … (SEQ ID NO: 2)” value turned out to be 2.2 Fold.

The same assay, now with this note: assay described in Example 5A.
B16: the “HHDH activity greater than the HHDH activity of Agrobacterium sp. (wild-type) HHDH (SEQ ID NO: 2)” value is recorded as “greater HHDH activity relative to wildtype HHDH”.

In the case of B17, the “HHDH activity greater than the HHDH activity of Agrobacterium sp. (wild-type) HHDH (SEQ ID NO: 2)” value is on record as “greater HHDH activity relative to wildtype HHDH”.

The next assay has as its target HHDH (Agrobacterium tumefaciens, UniProt Q93D82). As to the kind of experiment: Inhibition of HHDH by ECAA. In kind it is biochemical. The note with it: inhibitor of HHDH.
Broadly, the Ki is a measure of affinity in units of concentration, obtained from inhibition or displacement. Read a low Ki as tighter binding. `CCOC(=O)CC(=O)CCl` [ECAA, Ethyl-4-chloroacetoacetate] had a Ki of approximately 70 µM.
